Results on 1 substance are retold here after PMC2988976.

In the assay the target is Rev_(70-Dimer) (HIV) (UniProt P04618). The assay can be described thus: SEC-MALS. In general terms: Size exclusion chromatography separates by hydrodynamic size, large species first.

As to “Rev_(70-Dimer) (from UniProt P04618 1-70) (domain or fragment)”, the stoichiometry N amounted to 2.

The stoichiometry N is the number of molecules, sites or subunits per partner or assembly.
